Source: paper PMC2686265, “ATP and MO25α Regulate the Conformational State of the STRADα Pseudokinase and Activation of the LKB1 Tumour Suppressor” (PLoS Biology, 2009)
Residue numbers refer to the chain shown, from its start. In names and notes the source's numbering stands.

Key:
[1] = molecular target: T1, STRADα (Homo sapiens, UniProt Q7RTN6); assay: TNP-ATP saturation binding (fluorescence); conditions: STRADα alone
T1 construct: wild-type and mutant forms of STRADα (residues 54–431) and MO25α (residues 1–341) were expressed individually as GST fusion proteins in E. coli; GST (cleaved yes); made in house; host or cells: E. coli
T1 sequence (Q7RTN6 54-431): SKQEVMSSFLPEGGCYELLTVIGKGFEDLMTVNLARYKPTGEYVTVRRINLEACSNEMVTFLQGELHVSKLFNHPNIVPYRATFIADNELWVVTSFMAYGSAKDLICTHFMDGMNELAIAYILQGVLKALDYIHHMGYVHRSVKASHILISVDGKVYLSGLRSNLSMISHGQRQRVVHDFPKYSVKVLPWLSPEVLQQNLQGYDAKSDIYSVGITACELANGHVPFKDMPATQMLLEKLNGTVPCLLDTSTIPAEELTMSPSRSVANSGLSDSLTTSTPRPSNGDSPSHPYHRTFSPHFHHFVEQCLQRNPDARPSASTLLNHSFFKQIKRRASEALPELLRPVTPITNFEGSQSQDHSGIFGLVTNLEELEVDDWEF
Experimental: (§1) Fluorescent measurements of TNP-ATP (Molecular Probes), were obtained at 25°C in assay buffer (with the addition of 0.5–1.0 mM MgCl2 where indicated) using 1-cm pathlength cuvettes in a VARIAN Cary Eclipse Fluorescence spectrophotometer (Varian). Fluorescence was recorded using a 410-nm/540-nm excitation/emission wavelengths from 500 to 600 nm. In all cases, signal from the TNP-ATP buffer control was subtracted as background. For all binding studies, STRADα and STRADα mutants were assayed at 2 µM. In cases where STRADα/MO25α complexes were assayed, wild-type or mutant MO25α (2 µM) were preincubated for at least 2 h at 4°C prior to a fluorescence binding experiment. For saturation binding experiments, concentrated stocks of TNP-ATP were added stepwise, covering a range of concentrations from 0.05 to 30 µM. For displacement experiments, the concentration of TNP-ATP was fixed at 5 µM, and ATP or ADP was titrated in, covering a range of concentrations from 0.05 to 500 µM.
(§2) All data were analysed using GraphPad-PRISM software (http://www.graphpad.com). […] In the displacement studies, equilibrium constant values for ATP and ADP were calculated by first determining the logEC50 value, using a standard dose-response equation: F x/F max = minimum+(maximum−minimum)/(1+10^([N]−logEC 50 ^)), where [N] equals the concentration of added nucleotide, and F x/F max represents the fractional occupancy. Equilibrium constants for the competing ATP and ADP (K d ^N), were fitted using the equation: logEC50 = log(10^logK d ^N × (1+[TNP−ATP]/K d ^TNP−ATP)).

[2] = molecular target: T2, STRADα/MO25α complex (Homo sapiens, UniProt Q7RTN6); assay: TNP-ATP saturation binding (fluorescence); conditions: No Mg2+
T2 construct: wild-type and mutant forms of STRADα (residues 54–431) and MO25α (residues 1–341) were expressed individually as GST fusion proteins in E. coli; GST (cleaved yes); made in house; host or cells: E. coli
T2 sequence (Q7RTN6 54-431): T1 sequence (Q7RTN6 54-431)
T2 sequence (Q9Y376 1-341 partner): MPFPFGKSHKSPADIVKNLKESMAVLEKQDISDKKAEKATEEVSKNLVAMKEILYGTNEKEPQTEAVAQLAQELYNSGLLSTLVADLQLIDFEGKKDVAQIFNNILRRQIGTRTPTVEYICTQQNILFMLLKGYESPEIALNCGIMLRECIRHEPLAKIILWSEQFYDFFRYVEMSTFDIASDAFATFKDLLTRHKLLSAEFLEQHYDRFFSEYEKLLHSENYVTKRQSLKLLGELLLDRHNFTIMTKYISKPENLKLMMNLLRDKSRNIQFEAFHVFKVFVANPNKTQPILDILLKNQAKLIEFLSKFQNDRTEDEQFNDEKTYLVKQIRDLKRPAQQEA
Experimental: as §1, §2

[3] = molecular target: T3, MO25α (M260A) (residues 1–341) (human, UniProt Q9Y376 1-341, M260A); assay: SPR; ATP, Kd1
T3 sequence: T2 sequence (Q9Y376 1-341 partner) with M260A

[4] = molecular target: T4, MO25α (R227A) (residues 1–341) (human, UniProt Q9Y376 1-341, R227A); assay: SPR; ATP, Kd1
T4 sequence: T2 sequence (Q9Y376 1-341 partner) with R227A

[5] = molecular target: T3, MO25α (M260A) (residues 1–341); assay: SPR; ATP+Mg2+, Kd1
[6] = molecular target: T4, MO25α (R227A) (residues 1–341); assay: SPR; ATP+Mg2+, Kd1
[7] = molecular target: T5, MO25α (WT) (residues 1–341) (human, UniProt Q9Y376 1-341); assay: SPR; ATP+Mg2+, Kd1
T5 chain: T2 sequence (Q9Y376 1-341 partner)

[8] = molecular target: T3, MO25α (M260A) (residues 1–341); assay: SPR; ATP+Mg2+, Kd2 (second site)
[9] = molecular target: T5, MO25α (WT) (residues 1–341); assay: SPR; ATP+Mg2+, Kd2 (second site)
[10] = molecular target: T3, MO25α (M260A) (residues 1–341); assay: SPR; ATP, Kd2 (second site)
[11] = molecular target: T3, MO25α (M260A) (residues 1–341); assay: SPR
[12] = molecular target: T6, His-STRADα (residues 59–431) (human, UniProt Q7RTN6 59-431, lysines chemically methylated in the 2.35 Å crystal form only); assay: crystal structure; co-expressed His-STRADα(59–431)/MO25α(1–341) complex at 7.5 mg/ml with 10 mM ATP and 1 mM MgCl2, sitting drop; unmethylated crystals 4.8 Å, lysine-methylated crystals 2.35 Å, space group P212121; conditions: both partners purified
T6 construct: STRADα (STe-20 Related Adaptor alpha), human, residues 59–431; Crystallised both unmethylated (4.8 Å) and lysine-methylated (2.35 Å, PDB 3GNI); unmethylated in SPR; also called N-terminally 6-His-tagged STRADα; His-tagged STRADα; source: E. coli BL21(DE3)pLysS, coexpressed with untagged MO25α, purified (Ni2+ IMAC, Superdex 75); for SPR separated from MO25α on Ni2+-agarose (500 mM NaCl washes, …)
T6 sequence (looked up): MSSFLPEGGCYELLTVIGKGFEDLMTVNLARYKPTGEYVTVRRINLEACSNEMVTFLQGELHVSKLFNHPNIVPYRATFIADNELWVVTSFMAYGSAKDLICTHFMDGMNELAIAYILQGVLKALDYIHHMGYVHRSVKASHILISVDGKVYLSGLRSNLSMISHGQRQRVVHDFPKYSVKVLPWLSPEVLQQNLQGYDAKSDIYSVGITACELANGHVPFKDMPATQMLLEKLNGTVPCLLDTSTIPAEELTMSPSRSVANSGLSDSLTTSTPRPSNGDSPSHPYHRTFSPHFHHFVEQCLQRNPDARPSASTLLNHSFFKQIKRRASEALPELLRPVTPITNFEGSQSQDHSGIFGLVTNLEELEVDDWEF

[13] = molecular target: T7, untagged STRADα (residues 59–431) (human, UniProt Q7RTN6 59-431); assay: SPR; as a2 but with 100 µM ATP and 1 mM MgCl2 (MgATP); conditions: both partners purified
T7 construct: STRADα, human, residues 59–431; also called STRADα lacking the His tag
T7 sequence (looked up): T6 sequence (looked up)

Nc1ncnc2c1ncn2[C@@H]1O[C@H](COP(=O)(O)OP(=O)(O)OP(=O)(O)O)[C@H]2OC3(O[C@H]21)C([N+](=O)[O-])=CC(=[N+]([O-])[O-])C=C3[N+](=O)[O-] (some centres unmarked) [TNP-ATP, 2′,3′-O-2,4,6-trinitrophenyl-ATP]
Kd ([1]; 0.5 mM Mg2+): 1300 ± 800 nM | Kd ([1]; No Mg2+): 1100 nM | Kd [2]: 90 ± 30 nM

B1: untagged STRADα (residues 59–431) (domain or fragment)
chain: T6 sequence (looked up)
Kd [3]: 1500 nM | Kd [4]: 600 nM | Kd [5]: 2300 nM | Kd [6]: 800 nM | Kd [7]: 5100 nM | Kd [8]: 82 nM | Kd [9]: 51 nM | Kd [10]: 30 nM | Kd [11]: 8100 nM

B2: full-length MO25α (residues 1–341), untagged (natural protein, human, UniProt Q9Y376 1-341, looked up)
chain: T2 sequence (Q9Y376 1-341 partner)
modifications: lysines chemically methylated in the 2.35 Å crystal form only
notes: MO25α, human, full length, residues 1–341; source: E. coli BL21(DE3)pLysS, coexpressed with His-STRADα, co-purified (Ni2+ IMAC, Superdex 75)
binding result [12]: binds

B3: MO25α (R227A) (residues 1–341) (natural protein, human, UniProt Q9Y376 1-341, looked up)
chain: T2 sequence (Q9Y376 1-341 partner) with R227A
notes: MO25α, human, residues 1–341 (full length), R227A; source: E. coli, expressed individually as GST fusion, purified on glutathione-Sepharose, eluted with PreScission protease
binding result [13]: binds
